Data as given in PMC10784468 (Nature Communications, 2024).
Values joined by “and” are separate entries in the source; they are usually repeats but may differ in a detail not shown here. Equal entries are not always repeated. Where two headings read alike, the source gives them in different places. Positions of bridges follow the written chain, without caps; N, C: chain ends. Residues, ends and D or L forms follow the SMILES beside them. *: point of attachment. X1 = O=C(O)c1ccc(-c2c3nc(c(-c4ccc(C(=O)O)cc4)c4ccc([nH]4)c(-c4ccc(C(=O)*)cc4)c4nc(c(-c5ccc(C(=O)O)cc5)c5ccc2[nH]5)C=C4)C=C3)cc1; X2 = O=C(O)C/C(=C/C(=O)*)C(=O)O

Tests used:
EJ tumor tissues [1] = assay: Tumor iron content detection (Prussian blue); format: in vivo, BALB/c nude mice; settings: 8 mg/kg i.v.
Experimental: EJ tumor tissues were collected under euthanasia at the end of treatment and washed with PBS for 3 times. Afterwards, the DAB-enhanced Prussian blue iron staining was performed with Wuhan Servicebio Technology Co., Ltd.

[2] = tested on: MCF-7/MDR xenograft tumors; assay: In vivo antitumor evaluation in MCF-7/MDR xenografted model
Text: Female BALB/c nude mice (~8 weeks, 18 g) were subcutaneously inoculated with 5 × 10^6 MCF-7/MDR cells resuspended in Matrigel. […] Individual tumor volume and bodyweight of mouse after different treatment was collected at 2-days intervals for analysis. Mice were killed at 20 days post treatment unless endpoints were exceeded. Moreover, tumors from all groups were harvested under euthanasia and weighed for analysis at the end of treatment.

[3] = Cy-labeled
Experimental: Firstly, A density of 5 × 10^6 EJ cell resuspended in Matrigel were subcutaneously injected into the right hind of mice to construct EJ xenograft model. When the tumor volume reached about 200–400 mm^3, the mice were administrated with Cy labeled Gi-F ([…]), Cy labeled Gi-F-SA ([…]) and Cy labeled Gi-F-CAA ([…]) by intravenous injection for in vivo fluorescence imaging at different timepoints (10 min, 20 min, 40 min, 1 h, 2 h, 4 h, 8 h, 12 h and 24 h) with in vivo imaging system (IVIS). Meanwhile, the EJ xenograft mice were sacrificed for collecting major organs and tumors to evaluate the biodistribution of Gi-F-CAA.

EJ cells [4] = assay: Intracellular LPO fluorescence imaging (C11-BODIPY); format: cell-based; settings: pH 6.5, 40 μM, 8 h
Experimental: Initially, EJ cells (5 × 10^5) were cultured in confocal dish with a CO2 incubator overnight at 37 °C. […] Next, EJ cells were collected and washed with PBS for 3 times.

PTGS2 = assay: Tumor PTGS2 content detection; format: in vivo, BALB/c nude mice; settings: EJ tumor tissues, 8 mg/kg i.v., versus PBS, Gi-F and Gi-F-SA
Experimental: EJ tumor tissues were collected under euthanasia at the end of treatment and washed with PBS for 3 times. Afterwards, the immunofluorescence analyses of Prostaglandin-Endoperoxide Synthase 2 (PTGS2) expression were performed with Wuhan Servicebio Technology Co., Ltd.

EJ cells [5] = assay: Intracellular ROS detection (DCFH-DA); format: cell-based; settings: pH 6.5, 40 μM, 8 h
Experimental: Initially, EJ cells (5 × 10^5) were cultured in confocal dish with a CO2 incubator overnight at 37 °C. […] Afterwards, EJ cells were washed with PBS for 3 times and replaced with culture mediums.

EJ tumor tissues [6] = assay: Tumor ROS content detection; format: in vivo, BALB/c nude mice; settings: 8 mg/kg i.v., versus PBS, Gi-F and Gi-F-SA
Experimental: EJ tumor tissues were collected under euthanasia at the end of treatment and washed with PBS for 3 times. Next, DCFH-DA fluorescence staining was carried out by Wuhan Servicebio Technology Co., Ltd.

[7] = •OH by TPA fluorescence assay, turnover frequency; settings: TPA fluorescence 425 nm, H2O2 concentration-dependent
Experimental: The generation of •OH was determined by the Magnettech MS-5000 EPR spectrometer. Typically, peptide-porphyrin conjugates (40 μM) were exposed to H2O2 (200 μM) for 3 min in the presence of 5,5-dimethyl-1-pyrroline-N-oxide (DMPO, 100 μM). The •OH signal was immediately detected by the EPR spectrometer. The amount of •OH was measured by using TPA as an indicator that following the increasement of HTPA fluorescence in the conjugate solution. Briefly, TPA (50 μL, 2 mM) and fresh conjugate solution (50 mM) were mixed with 1 ml H2O, and then the solution was exposed to various concentration of H2O2. The fluorescence at 425 nm (λex = 310 nm) was recorded at 5 min to determine the concentration of •OH, which can further be applied for calculating the TOF of peptide-porphyrin conjugates.
Supplementary Fig. 21. Terephthalic acid (TPA) reacts with hydroxyl radical in solution to produce stable and strong fluorescent substances (Ortho -hydroxyterephthalic acid, HTPA). The reaction is used to quantitatively analyze •OH produced by Gi -F under the H2O2 treatment (a). Plot showing the linear relationship of relative fluorescence intensity with H 2O2 concentration (b). The fluorescence of different concentration of HTPA at 425 […]
(1 picture or pasted object on this page, not shown here)

[8] = ex vivo, i.v., EJ xenograft mice
[9] = ex vivo, EJ xenograft mice, i.v. 0.5 mg/kg, mice 1
[10] = ex vivo, EJ xenograft mice, i.v. 0.5 mg/kg, mice 2
[11] = ex vivo, EJ xenograft mice, i.v. 0.5 mg/kg, mice 3
[12] = ex vivo, EJ xenograft mice, i.v. 1 mg/kg, mice 1
[13] = ex vivo, EJ xenograft mice, i.v. 1 mg/kg, mice 2
[14] = ex vivo, EJ xenograft mice, i.v. 1 mg/kg, mice 3
[15] = ex vivo, EJ xenograft mice, i.v. 2 mg/kg, mice 1
[16] = ex vivo, EJ xenograft mice, i.v. 2 mg/kg, mice 2
[17] = ex vivo, EJ xenograft mice, i.v. 2 mg/kg, mice 3
[18] = ex vivo, EJ xenograft mice, i.v. 4 mg/kg, mice 1
[19] = ex vivo, EJ xenograft mice, i.v. 4 mg/kg, mice 2
[20] = ex vivo, EJ xenograft mice, i.v. 4 mg/kg, mice 3
[21] = ex vivo, EJ xenograft mice, i.v. 8 mg/kg, mice 1
[22] = ex vivo, EJ xenograft mice, i.v. 8 mg/kg, mice 2
[23] = ex vivo, EJ xenograft mice, i.v. 8 mg/kg, mice 3

Which “iron levels of tumor tissues versus other groups” value (EJ tumor tissues [1]) does the source give for `CC(C)C[C@H](NC(=O)c1ccc(-c2c3nc(c(-c4ccc(C(=O)O)cc4)c4ccc([nH]4)c(-c4ccc(C(=O)O)cc4)c4nc(c(-c5ccc(C(=O)O)cc5)c5ccc2[nH]5)C=C4)C=C3)cc1)C(=O)N[C@@H](CCCCNC(=O)/C=C(/CC(=O)O)C(=O)O)C(=O)N[C@@H](CC(C)C)C(=O)N[C@@H](CCCCN)C(=O)N[C@@H](CC(C)C)C(=O)N[C@@H](CCCCNC(=O)/C=C(/CC(=O)O)C(=O)O)C(=O)NCC(=O)N[C@@H](C)C(=O)N[C@H]1CSSC[C@@H](C(=O)N2CCC[C@H]2C(=O)N[C@H](C(=O)O)C(C)C)NC(=O)[C@@H]2CCCN2C(=O)[C@H](Cc2ccc(O)cc2)NC(=O)[C@H](CC(C)C)NC(=O)[C@@H]2CCCN2C(=O)[C@H](CC(C)C)NC(=O)[C@H](Cc2c[nH]c3ccccc23)NC(=O)[C@H](CC(N)=O)NC1=O` [Gi-F-CAA] (X1-LK(X2)LKLK(X2)GACNWLPLYPCPV-OH; disulfide 9-17; C-terminus assumed) here?
Its value is “substantially higher”.

What about the “mean tumor volume at 20 days post injection” value ([2]; MCF-7/MDR xenograft, six i.v. injections every 2 days, Gi-F-CAA 8 mg/kg, DOX and CPT 3 mg/kg, n = 6) of the same compound?
Its value is 623 mm^3.

What about the TGI rate ([2]; MCF-7/MDR xenograft, six i.v. injections, Gi-F-CAA 8 mg/kg, DOX and CPT 3 mg/kg, 20 days) of the same compound?
Its TGI rate is 66%.

And the Tumor weight ([2]; mice 1)?
The Tumor weight was 0.59 g.

And the Tumor weight ([2]; mice 2)?
Its Tumor weight is 0.52 g.

And the Tumor weight ([2]; mice 3)?
Its Tumor weight is 0.51 g.

And the Tumor weight ([2]; mice 4)?
Its Tumor weight is 0.35 g.

And the Tumor weight ([2]; mice 5)?
The Tumor weight was 0.37 g.

And the Tumor weight ([2]; mice 6)?
Its Tumor weight is 0.54 g.

And the DLS size distribution, Number (%)?
The DLS size distribution, Number (%) was 0.000191% and 14% and 7.4%.

And the “ex vivo fluorescence signal at the tumor” value ([3]; 8 mg/kg i.v., versus Gi-F and Gi-F-SA groups)?
The value was “strong fluorescence signal”.

What about the “fluorescence intensity at tumor relative to kidney” value [3, 8] of the same compound?
Its value is ~ 2.4 fold.

And the “fluorescence intensity at tumor relative to liver” value [3, 8]?
Its value is ~ 1.9 fold.

And the “kidney Average FI” value [3, 9]?
The value was 1.89E+07 x10^8 p/cm2/s.

What about the “liver Average FI” value [3, 9] of the same compound?
Its value is 2.16E+07 x10^8 p/cm2/s.

And the “tumor Average FI” value [3, 9]?
Its value is 1.51E+07 x10^8 p/cm2/s.

And the “kidney Average FI” value [3, 10]?
Its value is 1.50E+07 x10^8 p/cm2/s.

What about the “liver Average FI” value [3, 10] of the same compound?
The value was 1.85E+07 x10^8 p/cm2/s.

And the “tumor Average FI” value [3, 10]?
Its value is 1.10E+07 x10^8 p/cm2/s.

What about the “kidney Average FI” value [3, 11] of the same compound?
Its value is 1.59E+07 x10^8 p/cm2/s.

What about the “liver Average FI” value [3, 11] of the same compound?
The value was 1.52E+07 x10^8 p/cm2/s.

What about the “tumor Average FI” value [3, 11] of the same compound?
Its value is 1.37E+07 x10^8 p/cm2/s.

What about the “kidney Average FI” value [3, 12] of the same compound?
Its value is 3.76E+07 x10^8 p/cm2/s.

And the “liver Average FI” value [3, 12]?
The value was 4.34E+07 x10^8 p/cm2/s.

What about the “tumor Average FI” value [3, 12] of the same compound?
Its value is 2.76E+07 x10^8 p/cm2/s.

And the “kidney Average FI” value [3, 13]?
The value was 3.14E+07 x10^8 p/cm2/s.

And the “liver Average FI” value [3, 13]?
Its value is 3.92E+07 x10^8 p/cm2/s.

What about the “tumor Average FI” value [3, 13] of the same compound?
The value was 2.99E+07 x10^8 p/cm2/s.

And the “kidney Average FI” value [3, 14]?
Its value is 3.06E+07 x10^8 p/cm2/s.

And the “liver Average FI” value [3, 14]?
Its value is 3.19E+07 x10^8 p/cm2/s.

What about the “tumor Average FI” value [3, 14] of the same compound?
Its value is 3.48E+07 x10^8 p/cm2/s.

And the “kidney Average FI” value [3, 15]?
The value was 5.61E+07 x10^8 p/cm2/s.

What about the “liver Average FI” value [3, 15] of the same compound?
The value was 6.33E+07 x10^8 p/cm2/s.

And the “tumor Average FI” value [3, 15]?
Its value is 4.80E+07 x10^8 p/cm2/s.

And the “kidney Average FI” value [3, 16]?
The value was 4.60E+07 x10^8 p/cm2/s.

What about the “liver Average FI” value [3, 16] of the same compound?
Its value is 5.75E+07 x10^8 p/cm2/s.

And the “tumor Average FI” value [3, 16]?
The value was 3.97E+07 x10^8 p/cm2/s.

What about the “kidney Average FI” value [3, 17] of the same compound?
Its value is 4.92E+07 x10^8 p/cm2/s.

What about the “liver Average FI” value [3, 17] of the same compound?
Its value is 4.67E+07 x10^8 p/cm2/s.

And the “tumor Average FI” value [3, 17]?
The value was 3.88E+07 x10^8 p/cm2/s.

And the “kidney Average FI” value [3, 18]?
The value was 7.41E+07 x10^8 p/cm2/s.

What about the “liver Average FI” value [3, 18] of the same compound?
Its value is 9.04E+07 x10^8 p/cm2/s.

What about the “tumor Average FI” value [3, 18] of the same compound?
Its value is 9.54E+07 x10^8 p/cm2/s.

What about the “kidney Average FI” value [3, 19] of the same compound?
Its value is 6.02E+07 x10^8 p/cm2/s.

What about the “liver Average FI” value [3, 19] of the same compound?
Its value is 7.81E+07 x10^8 p/cm2/s.

What about the “tumor Average FI” value [3, 19] of the same compound?
The value was 8.23E+07 x10^8 p/cm2/s.

What about the “kidney Average FI” value [3, 20] of the same compound?
Its value is 6.88E+07 x10^8 p/cm2/s.

What about the “liver Average FI” value [3, 20] of the same compound?
Its value is 6.42E+07 x10^8 p/cm2/s.

What about the “tumor Average FI” value [3, 20] of the same compound?
Its value is 9.16E+07 x10^8 p/cm2/s.

What about the “kidney Average FI” value [3, 21] of the same compound?
Its value is 8.52E+07 x10^8 p/cm2/s.

And the “liver Average FI” value [3, 21]?
The value was 1.07E+08 x10^8 p/cm2/s.

And the “tumor Average FI” value [3, 21]?
The value was 2.09E+08 x10^8 p/cm2/s.

And the “kidney Average FI” value [3, 22]?
Its value is 6.80E+07 x10^8 p/cm2/s.

What about the “liver Average FI” value [3, 22] of the same compound?
The value was 9.09E+07 x10^8 p/cm2/s.

What about the “tumor Average FI” value [3, 22] of the same compound?
The value was 1.62E+08 x10^8 p/cm2/s.

What about the “kidney Average FI” value [3, 23] of the same compound?
Its value is 7.55E+07 x10^8 p/cm2/s.

And the “liver Average FI” value [3, 23]?
The value was 8.19E+07 x10^8 p/cm2/s.

What about the “tumor Average FI” value [3, 23] of the same compound?
The value was 1.71E+08 x10^8 p/cm2/s.

And the “intracellular LPO (BODIPY 581/591 C11)” value (EJ cells [4])?
The value was “extensive accumulation of LPO”.

And the “PTGS2 levels of tumor tissues” value (PTGS2)?
The value was “elevation”.

What about the “intracellular ROS (DCFH-DA)” value (EJ cells [5]) of the same compound?
Its value is “Apparent green fluorescence”.

What about the “ROS levels of tumor tissues” value (EJ tumor tissues [6]) of the same compound?
The value was “elevation”.

Which “turnover frequency (TOF)” value [7] does the source give for “FeTCPP-LKLKLKGACNWLPLYPCPV (disulfide) [Gi-F]” here?
The value was 0.022 s⁻¹.
